Measurements reported in patent US20110217237A1 (AbbVie / Abbott, published 2011).
Where two headings read alike, the source gives them in different places.

B1: h1A11.1 (antibody, V domains shown)
VH: EVQLVESGGGLVQPGGSLRLSCAASGFTFSNFPMAWVRQAPGKGLEWVATISSSDGTTYYRDSVKGRFTISRDNAKNSLYLQMNSLRAEDTAVYYCARGYYNSPFAYWGQGTLVTVSS
VL: DIQMTQSPSSLSASVGDRVTITCRASEDIYSNLAWYQQKPGKAPKLLIYDTNNLADGVPSRFSGSGSGTDFTLTISSLQPEDFATYYCQQYNNYPPTFGQGTKLEIKR
notes: humanized IgG; also called hu1A11.1; VH.1/VL.1 1A11
B2: h1A11.3 (antibody, V domains shown)
VH: EVQLVESGGGLVQPGGSLRLSCAASGFTFSNFPMAWVRQAPGKGLEWVATISSSDGTTYYRDSVKGRFTISRDNAKNSLYLQMNSLRAEDTAVYYCARGYYNSPFAYWGQGTLVTVSS
VL: DIQMTQSPSSLSASVGDRVTITCRASEDIYSNLAWYQQKPGKAPKLLIFDTNNLADGVPSRFSGSGSGTDFTLTISSLQPEDFATYYCQQYNNYPPTFGQGTKLEIKR
notes: humanized IgG; also called VH.1/VL.1b 1A11
B3: h1A11.4 (antibody, V domains shown)
VH: EVQLVESGGGLVQPGGSLRLSCAASGFTFSNFPMAWVRQAPGKGLEWVATISSSDGTTYYRDSVKGRFTISRDNAKNSLYLQMNSLRAEDTAVYYCARGYYNSPFAYWGQGTLVTVSS
VL: EIVMTQSPATLSVSPGERATLSCRASEDIYSNLAWYQQKPGQSPRLLIFDTNNLADGVPARFSGSGSGTESTLTISSLQSEDFAVYFCQQYNNYPPTFGQGTKLEIKR
notes: humanized IgG; also called VH.1/VL.2a 1A11
B4: h1A11.8 (antibody, V domains shown)
VH: EVQLVESGGGLVQPGGSLRLSCAASGFTFSNFPMAWVRQAPGKGLEWVATISSSDGTTYYRDSVKGRFTISRDNAKSSLYLQMNSLRAEDTAVYYCSRGYYNSPFAYWGQGTLVTVSS
VL: EIVMTQSPATLSVSPGERATLSCRASEDIYSNLAWYQQKPGQSPRLLIFDTNNLADGVPARFSGSGSGTESTLTISSLQSEDFAVYFCQQYNNYPPTFGQGTKLEIKR
notes: humanized IgG; also called VH.1a/VL.2a 1A11
B5: 38H12 chimeric antibody (antibody, human IgG1, V domains shown)
VH: EVQLVESGGGLVQPGRSLKLSCAASGFTFSNYGMYWIRQAPTKGLQWVAFISHGGGITYYRDSVKGRFTISRDNAKSTLYLQMDSLRSEDTATYHCAALNWELGIDYWGQGVMVTVSS
VL: DIQMTQSPASLSASLGETISIECRASEDIYSNLAWYQKKSGKSPQLLIYAANRLQDGVPSRFSGSGSGTQYSLKISGMQPEDEGDYFCLQGSKFPLTFGSGTKLEIKR
notes: also called Chimera of 38H12
B6: 32C7 chimeric antibody (antibody, human IgG1, V domains shown)
VH: EVQLVESGGGLVQPGRSLKLSCLASGFPFSSVWMTWIRQAPGKGLEWIATITNSGASTYYSASVKGRFTISRDNVKSTLYLQMTSLGSEDTATYYCTRVGTSFDYWGQGVMVTVSS
VL: DIQMTQSPASLSASLGETVTIECRASDDIYNGLAWFQQKPGKSPQLLIYDANTLHTGVPSRFSGSGSGTQFSLKINSLQSEDVASYFCQQFYDYPPYTFGAGTKLELKR
notes: also called Chimera of 32C7
B7: 14G1 chimeric antibody (antibody, human IgG1, V domains shown)
VH: EVQLQQSGAELAKPGSSVKISCKASGYTFTNYDISWIKQTNGQGLEYLGYINTGSGGIYSNEKFKGKATLTVDKSSNTAFMQLSSLTPEDTAVYYCVREGNNFDHWGQGVKVTVSS
VL: DTVMTQSPASMSTSVGERVTVNCKASQSVGTIVAWFQQKPGQSPKRLIYLATYRHTGVPDRFIGSGFGRDFTLTISNVEAEDLAVYYCLQYGSRPFTFGAGTKLEIKR
notes: also called Chimera of 14G1

How the values were obtained:
[1] = target: T1, human DLL4, full length, on cells (human, UniProt Q9NR61 27-685); experiment: FACS, DLL4 cells
T1 construct: also called huDLL4 cells; human DLL4-293G

mouse DLL4 on cells [2] = target: T2, mouse DLL4 on cells (mouse, UniProt Q9JI71 27-686); experiment: FACS, DLL4 cells
T2 construct: whole, on cells; also called mouse DLL4-293G; mu DLL4 cells

[3] = target: T3, mouse DLL4 extracellular domain (mouse, UniProt Q9JI71 27-532); experiment: SPR (Biacore)
T3 construct: extracellular domain; also called muDLL4 ECD; murine DLL4
In short: (§1)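 Purified anti-DLL4 antibodies (1 μg/ml) captured on immobilized goat anti-human Fc, with DLL4 ECD injected as analyte; HBS-EPB running buffer (pH 7.4), 25° C, referenced against capture-only surface. On/off rates from global 1:1 Langmuir fit; KD = Koff/Kon.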

[4] = target: T4, rat DLL4 extracellular domain (rat, UniProt D3ZHH1 28-530); experiment: SPR (Biacore)
T4 construct: extracellular domain; also called ratDLL4 ECD
In short: as §1

[5] = target: T5, human DLL4 extracellular domain (human, UniProt Q9NR61 27-529); experiment: SPR (Biacore)
T5 construct: purified recombinant ECD; biotin-labelled or 6xHis-tagged depending on the assay; also called huDLL4 ECD; hu DLL4 ECD
In short: as §1

[6] = target: T6, cynomolgus monkey DLL4 extracellular domain (cynomolgus monkey); experiment: SPR (Biacore)
T6 construct: extracellular domain; also called cynoDLL4 ECD; Cyno DLL4
In short: as §1

[7] = target: T3, mouse DLL4 extracellular domain; experiment: SPR (Biacore); remark: listed apart in the source
Protocol: (§2) The BIACORE® surface plasmon resonance assay (Biacore, Inc., Piscataway, N.J., US) determines the affinity of antibodies with kinetic measurements of on-rate and off-rate constants. Binding of DLL4 antibodies to a purified recombinant DLL4 extracellular domain (ECD) was determined by surface plasmon resonance-based measurements with a Biacore® instrument (either a Biacore 2000, Biacore 3000, or Biacore T100; GE Healthcare, Piscataway, N.J., US) using running buffer HBS-EPB (10 mM HEPES [pH 7.4], 150 mM NaCl, 3 mM EDTA, 0.1 mg/ml BSA and 0.005% surfactant P20) at 25° C. For example, approximately 9000 RU of goat anti-human Fc specific polyclonal antibody (Thermo Fisher Scientific Inc., Rockford, Ill., US) diluted in 10 mM sodium acetate (pH 4.5) is directly immobilized across a CMS research grade biosensor chip using a standard amine coupling kit according to manufacturer's instructions and procedures at 25 μg/ml. Unreacted moieties on the biosensor surface were blocked with ethanolamine. For kinetic analysis, rate equations derived from the 1:1 Langmuir binding model were fitted simultaneously to multiple antigen injections (using global fit analysis) with the use of Scrubber 2 (BioLogic Software), Biacore Biaevaluation 4.0.1 software or Biacore T100 Evaluation software. Purified antibodies were diluted in running buffer for capture across goat anti-human Fc reaction surfaces. Antibodies to be captured as a ligand (1 μg/ml) were injected over reaction matrices at a flow rate of 10 μl/min. During the assay, all measurements were referenced against the capture surface alone (i.e., with no captured anti-DLL4 antibody). […] The equilibrium dissociation constant KD (M) of the reaction between antibodies and the target antigen was then calculated from the kinetic rate constants by the following formula: KD=Koff/Kₒₙ. Binding was recorded as a function of time and kinetic rate constants were calculated.

[8] = target: T5, human DLL4 extracellular domain; experiment: SPR (Biacore); remark: listed apart in the source
Protocol: as §2

[9] = target: T1, human DLL4, full length, on cells; experiment: cell-based or functional assay
[10] = target: T3, mouse DLL4 extracellular domain; experiment: competition ELISA vs Notch-1
Protocol: (§3) Plates were then washed 3 times with wash buffer (PBS, 0.05% Tween-20) and blocked with 200 μl/well blocking buffer (D-PBS, 1% BSA, 1 mM CaCl₂, 0.05% Tween-20) for 1 hour at 25° C. While blocking, biotin labeled DLL4 extracellular domain (14 nM) was mixed with antibody (30 pM-66 nM, 3-fold serial dilution in blocking buffer) for 1 hour at 25° C. with shaking. Assay plates were washed after blocking, and incubated with DLL4/antibody mixtures (100 μl/well, 1 hour at 25° C. with shaking). Plates were washed again and 100 μl/well streptavidin conjugated with HRP (Fitzgerald #65R-S104PHRPx, diluted 1:5,000 in blocking buffer) was added for 1 hour at 25° C. with shaking. After a final wash, plates were developed using 100 μl/well substrate (TMB Sigma #T8665), and the reaction was stopped using 100 μl/well 1N HCl, and the absorbance was read at 450 nm. Data were analyzed using Graphpad Prism software and IC₅₀ values were reported as the concentration of antibody to achieve 50% reduction of DLL4 bound to Notch1.
(§4) Purified variants were further characterized for their affinities for human, murine and cynomolgus DLL4 by binding ELISA (Example 1.2, Method 2), by Biacore (Example 1.1), and by Flow Cytometry (FACS). […] The humanized variants were then tested for their functionality with human and murine DLL4 by competition ELISA (Example 1.3) and by Notch reporter assay (Example 1.6).

[11] = target: T5, human DLL4 extracellular domain; experiment: competition ELISA vs Notch-1
Protocol: as §3, §4

[12] = target: T3, mouse DLL4 extracellular domain; experiment: binding ELISA
Protocol: (§5) Plates were then washed 3 times. 100 μl/well of recombinant rat/human chimeric or recombinant human anti-DLL4 antibodies were then added to the plate (0.00164-27 nM, 4-fold serial dilution in ELISA buffer=PBST, 10% Superblock (Pierce #37515)) for 1 hour at 25° C. with shaking and then washed again 3 times. Plates were incubated with goat anti-human HRP (Pierce #31412) (1:40,000 dilution in ELISA buffer, 100 μl/well) for 1 hour at 25° C. with shaking, then washed 3 times. After the final wash, plates were incubated with 100 μl/well ELISA substrate (Sigma #T8665). The reaction was stopped after 8 minutes at 25° C. with 100 μl/well 1N HCl and the absorbance was read at 450 nm. Data were analyzed using Graphpad Prism software, and EC50 values were reported.
as §4

[13] = target: T5, human DLL4 extracellular domain; experiment: binding ELISA
Protocol: as §5, §4

[14] = target: T6, cynomolgus monkey DLL4 extracellular …; experiment: binding ELISA
Protocol: as §5, §4

[15] = target: T1, human DLL4, full length, on cells; experiment: competition FACS: huNotch-1 to DLL4 cells
Protocol: Notch blocking assay: Briefly, stable cell lines overexpressing cell-surface DLL4 were harvested from tissue culture flasks and re-suspended in phosphate buffered saline (PBS) containing 1% bovine serum albumin and 1 mM CaCl₂ (FACS buffer). HEK293G-DLL4 cells were dispensed into 96-well plate (v-bottom) at 1.5×10⁵ cells/well in FACS buffer. After spinning down cells and discarding the supernatant, 50 μL of purified IgG with appropriate dilution were added to each well, and incubated on ice at 4° C. for 60 minutes, followed by addition of 50 μL/well of Notch1-biotin at 0.2 μg/mL for human DLL4-293G or 2.0 μg/mL for mouse DLL4-293G (1.0 or 0.1 μg/mL final) for an additional 1 hour incubation ice at 4° C. After washing the cells two times with FACS buffer, 50 μL of R-phycoerythrin-conjugated streptavidin (1:150 dilution in FACS buffer) (Jackson ImmunoResearch, West Grove, Pa., Cat.#016-110-084) were added. Following an incubation on ice (4° C., 60 minutes), cells were washed three times and resuspended in FACS buffer. Fluorescence was measured using a Becton Dickinson FACSCalibur-HTS (Becton Dickinson, San Jose, Calif.). Data were analyzed using Graphpad Prism software, and IC₅₀ values were reported as the concentration of antibody to achieve 50% reduction of Notch1 bound to DLL4 expressing cells.

[16] = target: T1, human DLL4, full length, on cells; experiment: FACS, DLL4 cells; remark: listed apart in the source
mouse DLL4 on cells [17] = target: T2, mouse DLL4 on cells; experiment: FACS, DLL4 cells; remark: listed apart in the source

T5 sequence (Q9NR61 27-529 limits assumed): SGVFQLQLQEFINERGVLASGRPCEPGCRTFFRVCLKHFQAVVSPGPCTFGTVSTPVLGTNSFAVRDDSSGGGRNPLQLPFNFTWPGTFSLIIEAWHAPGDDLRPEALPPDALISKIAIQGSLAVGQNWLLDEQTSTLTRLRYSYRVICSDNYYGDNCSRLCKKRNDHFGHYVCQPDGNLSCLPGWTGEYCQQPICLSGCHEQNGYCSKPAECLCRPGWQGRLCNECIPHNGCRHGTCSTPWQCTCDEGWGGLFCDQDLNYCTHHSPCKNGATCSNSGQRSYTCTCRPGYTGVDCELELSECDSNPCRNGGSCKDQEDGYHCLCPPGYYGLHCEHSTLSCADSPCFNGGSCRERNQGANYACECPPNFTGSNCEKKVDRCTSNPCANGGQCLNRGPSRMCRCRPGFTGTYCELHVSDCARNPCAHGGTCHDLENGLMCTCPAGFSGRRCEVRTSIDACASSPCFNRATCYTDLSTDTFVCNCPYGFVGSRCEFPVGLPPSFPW
T2 sequence (Q9JI71 27-686): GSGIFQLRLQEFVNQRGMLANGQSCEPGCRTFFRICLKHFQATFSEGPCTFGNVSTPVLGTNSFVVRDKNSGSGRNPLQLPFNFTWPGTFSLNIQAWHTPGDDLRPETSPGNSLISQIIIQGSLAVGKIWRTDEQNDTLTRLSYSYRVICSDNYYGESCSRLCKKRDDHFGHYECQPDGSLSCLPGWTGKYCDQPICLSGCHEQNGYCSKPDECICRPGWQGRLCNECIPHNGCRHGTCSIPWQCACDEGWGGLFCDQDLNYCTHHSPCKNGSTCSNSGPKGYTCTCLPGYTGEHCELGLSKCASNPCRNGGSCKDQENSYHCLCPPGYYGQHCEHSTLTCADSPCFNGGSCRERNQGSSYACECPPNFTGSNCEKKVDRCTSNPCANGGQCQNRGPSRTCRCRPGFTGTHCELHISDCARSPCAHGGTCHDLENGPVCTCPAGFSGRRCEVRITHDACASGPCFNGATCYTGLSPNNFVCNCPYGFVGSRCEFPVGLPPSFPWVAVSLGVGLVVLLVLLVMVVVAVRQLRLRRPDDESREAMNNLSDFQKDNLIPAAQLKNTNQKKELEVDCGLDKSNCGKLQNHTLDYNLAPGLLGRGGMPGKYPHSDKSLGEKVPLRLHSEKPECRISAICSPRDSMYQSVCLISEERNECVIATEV
T3 sequence (Q9JI71 27-532): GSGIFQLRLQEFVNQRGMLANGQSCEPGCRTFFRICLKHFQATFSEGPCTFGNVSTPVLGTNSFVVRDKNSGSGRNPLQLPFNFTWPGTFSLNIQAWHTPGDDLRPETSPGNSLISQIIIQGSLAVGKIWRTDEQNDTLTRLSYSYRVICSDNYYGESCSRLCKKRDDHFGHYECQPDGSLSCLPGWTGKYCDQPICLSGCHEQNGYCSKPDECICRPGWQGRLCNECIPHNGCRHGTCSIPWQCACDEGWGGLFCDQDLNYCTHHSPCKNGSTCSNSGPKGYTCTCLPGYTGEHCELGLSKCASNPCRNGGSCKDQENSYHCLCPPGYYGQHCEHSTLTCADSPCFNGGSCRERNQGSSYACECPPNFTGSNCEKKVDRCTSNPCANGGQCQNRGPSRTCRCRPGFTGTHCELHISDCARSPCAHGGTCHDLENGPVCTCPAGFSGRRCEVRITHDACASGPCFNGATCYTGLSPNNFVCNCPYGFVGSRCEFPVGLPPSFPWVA
T1 sequence (Q9NR61 27-685 limits assumed): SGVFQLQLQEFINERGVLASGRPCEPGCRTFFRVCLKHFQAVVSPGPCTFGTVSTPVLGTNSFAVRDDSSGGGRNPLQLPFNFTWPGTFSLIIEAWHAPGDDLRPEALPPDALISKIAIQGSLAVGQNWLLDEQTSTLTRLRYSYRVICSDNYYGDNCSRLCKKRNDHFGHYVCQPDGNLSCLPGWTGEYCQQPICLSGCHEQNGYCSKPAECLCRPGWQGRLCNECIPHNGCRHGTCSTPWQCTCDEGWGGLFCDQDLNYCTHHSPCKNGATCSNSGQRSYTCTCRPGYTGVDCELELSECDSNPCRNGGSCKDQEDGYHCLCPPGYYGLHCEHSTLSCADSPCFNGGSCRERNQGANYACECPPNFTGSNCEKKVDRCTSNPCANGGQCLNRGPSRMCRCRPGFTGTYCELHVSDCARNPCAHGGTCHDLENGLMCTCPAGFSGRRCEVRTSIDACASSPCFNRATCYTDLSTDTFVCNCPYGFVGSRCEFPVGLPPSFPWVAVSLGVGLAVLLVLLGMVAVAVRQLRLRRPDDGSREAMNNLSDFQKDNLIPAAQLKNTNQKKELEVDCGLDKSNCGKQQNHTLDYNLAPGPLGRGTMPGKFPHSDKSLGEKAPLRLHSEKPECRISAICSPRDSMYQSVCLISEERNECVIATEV
T4 sequence (D3ZHH1 28-530): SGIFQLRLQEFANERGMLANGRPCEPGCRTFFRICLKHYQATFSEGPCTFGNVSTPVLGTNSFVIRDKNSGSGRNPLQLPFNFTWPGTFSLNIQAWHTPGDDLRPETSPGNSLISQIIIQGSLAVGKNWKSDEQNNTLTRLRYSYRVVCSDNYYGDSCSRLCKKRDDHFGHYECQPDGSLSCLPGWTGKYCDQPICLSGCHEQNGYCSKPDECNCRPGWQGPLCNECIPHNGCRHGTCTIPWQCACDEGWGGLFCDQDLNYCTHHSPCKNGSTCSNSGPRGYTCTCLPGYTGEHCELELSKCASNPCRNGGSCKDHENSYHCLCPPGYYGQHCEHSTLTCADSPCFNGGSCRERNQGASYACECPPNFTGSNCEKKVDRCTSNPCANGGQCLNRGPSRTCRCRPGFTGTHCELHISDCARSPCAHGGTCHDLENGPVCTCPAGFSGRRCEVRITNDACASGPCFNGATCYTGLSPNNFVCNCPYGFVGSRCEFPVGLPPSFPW

EC50 [1] | EC50 (mouse DLL4 on cells [2]) | Kd [7] | Kd [8] | Reporter Assay (EC50, nM) [9] | IC50 [10] | IC50 [11] | EC50 [12] | EC50 [13] | EC50 [14] | EC50 [16] | also measured | Binder
3.13 nM | 0.21 nM | 38 nM | 15 nM | 2.53 nM | 1.3 nM | 0.4 nM | 0.09 nM | 0.08 nM | 0.13 nM |  | Kd [3]: 32 nM; koff [3]: 0.00498 s⁻¹; kon [3]: 156000 M⁻¹ s⁻¹; binding result [4]: no binding; Kd [5]: 13 nM; koff [5]: 0.00212 s⁻¹; kon [5]: 158000 M⁻¹ s⁻¹; Kd [6]: 18 nM; koff [6]: 0.00255 s⁻¹; kon [6]: 144000 M⁻¹ s⁻¹ | B1
3.51 nM | 0.24 nM | 37 nM | 15 nM | 2.53 nM | 0.9 nM | 0.2 nM | 0.08 nM | 0.07 nM | 0.16 nM |  |  | B2
3.61 nM | 0.22 nM | 39 nM | 16 nM | 3.28 nM | 0.9 nM | 0.3 nM | 0.09 nM | 0.08 nM | 0.17 nM |  |  | B3
3.34 nM | 0.18 nM | 24 nM | 11 nM | 4.24 nM | 0.9 nM | 0.35 nM | 0.09 nM | 0.06 nM | 0.17 nM |  |  | B4
 |  |  |  |  |  |  |  |  |  | 1.47 nM | IC50 [15]: 1.44 nM | B5
 |  |  |  |  |  |  |  |  |  | 3.71 nM | EC50 (mouse DLL4 on cells [17]): 4.11 nM | B6
 |  |  |  |  |  |  |  |  |  | 0.994 nM | IC50 [15]: 4.11 nM | B7
